Experimental data published in paper PMC2633459 (Molecular Vision, 2009).
Positions count from the first letter of the chain named. Names and notes keep the numbering of the source. Values joined by “and” are separate entries in the source; they are usually repeats but may differ in a detail not shown here. Equal entries are not always repeated.

B1: wild type human βB1-crystallin (natural protein, UniProt P53674 1-252, looked up)
chain: MSQAAKASASATVAVNPGPDTKGKGAPPAGTSPSPGTTLAPTTVPITSAKAAELPPGNYRLVVFELENFQGRRAEFSGECSNLADRGFDRVRSIIVSAGPWVAFEQSNFRGEMFILEKGEYPRWNTWSSSYRSDRLMSFRPIKMDAQEHKISLFEGANFKGNTIEIQGDDAPSLWVYGFSDRVGSVKVSSGTWVGYQYPGYRGYQYLLEPGDFRHWNEWGAFQPQMQSLRRLRDKQWHLEGSFPVLATEPPK
notes: human βB1-crystallin, wild type, recombinant; Mixture of monomers and dimers at the concentrations of the 1:1 experiments; dimer at the higher concentration of the 5:1 experiment; source: E. coli, purified (successive ion-exchange chromatography)
B2: wild type human βA3-crystallin (natural protein, UniProt P05813 1-215, looked up)
chain: METQAEQQELETLPTTKMAQTNPTPGSLGPWKITIYDQENFQGKRMEFTSSCPNVSERSFDNVRSLKVESGAWIGYEHTSFCGQQFILERGEYPRWDAWSGSNAYHIERLMSFRPICSANHKESKMTIFEKENFIGRQWEISDDYPSLQAMGWFNNEVGSMKIQSGAWVCYQYPGYRGYQYILECDHHGGDYKHWREWGSHAQTSQIQSIRRIQQ
notes: human βA3-crystallin, wild type, recombinant; no tag is mentioned; also called WT βA3; βA3 WT; source: E. coli, purified (successive ion-exchange chromatography)
B3: wild type human βB2-crystallin (natural protein, UniProt P43320 1-205, looked up)
chain: MASDHQTQAGKPQSLNPKIIIFEQENFQGHSHELNGPCPNLKETGVEKAGSVLVQAGPWVGYEQANCKGEQFVFEKGEYPRWDSWTSSRRTDSLSSLRPIKVDSQEHKIILYENPNFTGKKMEIIDDDVPSFHAHGYQEKVSSVRVQSGTWVGYQYPGYRGLQYLLEKGDYKDSSDFGAPHPQVQSVRRIRDMQWHQRGAFHPSN
notes: human βB2-crystallin, wild type, recombinant; source: E. coli, purified (successive ion-exchange chromatography)
B4: doubly deamidated mutant βA3 Q85E/Q180E (natural protein, human, UniProt P05813 1-215, looked up)
chain: B2 chain with Q85E, Q180E
notes: human βA3-crystallin with Q85E and Q180E (mimic of deamidation), recombinant; Homo-dimer by SEC-MALS at 37 °C; precipitates at 55 °C when alone; also called DM βA3; βA3 DM; source: E. coli, purified (successive ion-exchange chromatography)

Assays:
[1] = molecular target: the molecule itself; assay: SEC-MALS; each crystallin alone, incubated 90 min at 37 °C; Superose 12 10/300 GL; pH 6.8, 29 mM Na2HPO4, 29 mM NaH2PO4, 100 mM KCl, 1 mM EDTA, 1 mM DTT
[2] = molecular target: the molecule itself; assay: SEC-MALS; 5:1 molar ratio of βB1 to βA3 (to favour the βB1 dimer), injected immediately (0 min) or after 30 min at 37 °C; same buffer
[3] = molecular target: B1; assay: SEC-MALS; 1:1 molar ratio of βA3 (WT or DM) with βB1 or βB2, final 0.4–0.5 mg/ml, incubated 90 min at 55 °C; filtered before injection; same buffer; conditions: both partners purified
[4] = molecular target: B4; assay: native gel or EMSA; blue-native PAGE, 4%–12% Bis-Tris gel, pH 7.0, 200 V, 4 °C; mixtures incubated at 37 °C for 60 min before the gel; conditions: both partners purified

Binder	stoichiometry N [1]	stoichiometry N [2]	binding result [3]	binding result [4]
B1	2	–	–	–
B2	–	2	binds	–
B3	2 and 4	–	–	binds
B4	2	–	–	–
